According to patent publication US20080118512A1 (DELENEX THERAPEUTICS, published 2008):
Residue numbers refer to the chain shown, from its start.

T1: human ALK epitope peptide (amino acids 391-406 of the ALK protein) (human)
T1 construct: In the yeast two-hybrid screen it was a C-terminal fusion to LexA; also called Alk LBD peptide; Alk LBD
T1 peptide: GRIGRPDNPFRVALEY

B1: 43.2 (scFv)
scFv (VL-linker-VH): QSVLTQPPSVSAAPGQKVTISCSGSTSNIGDNYVSWYQQLPGTAPQLLIYDNTKRPSGIPDRFSGSKSGTSATLGITGLQTGDEADYYCATWDNDKWGVVFGGGTKLEVLGGGGGSGGGGSGGGGSSGGGSEVQLVESGGGLVQPGGSLRLSCAASGFTFSSYAMSWVRQAPGKGLEWVSAIRTNSKEYYADSVKGRFTISRDNSKNTLYLQMNSLRAEDTAVYYCARDAWLDVLSDGFDYWGQGTLVTVSS
notes: One of the seven improved scFvs (group m4); The full chain is assembled from ESBA521 with its VH CDR2 exchanged
B2: 2.11 (scFv)
scFv (VL-linker-VH): QSVLTQPPSVSAAPGQKVTISCSGSTSNIGDNYVSWYQQLPGTAPQLLIYDNTKRPSGIPDRFSGSKSGTSATLGITGLQTGDEADYYCATWDNDKWGVVFGGGTKLEVLGGGGGSGGGGSGGGGSSGGGSEVQLVESGGGLVQPGGSLRLSCAASGFTFSSYAMSWVRQAPGKGLEWVSAIRTDSKEQYYADSVKGRFTISRDNSKNTLYLQMNSLRAEDTAVYYCARDAWLDVLSDGFDYWGQGTLVTVSS
notes: One of the seven improved scFvs (group m4); The full chain is assembled from ESBA521 with its VH CDR2 exchanged; also called scFv 2.11
B3: 100.2 (scFv)
scFv (VL-linker-VH): B2 scFv (VL-linker-VH) with R183K, S186G, K187N, E188H, Q189K
notes: as for B1
B4: 265.1 (scFv)
scFv (VL-linker-VH): B2 scFv (VL-linker-VH) with R183N, T184M, D185K, S186G, K187N, E188D, Q189R
notes: as for B1
B5: 33.11 (scFv)
scFv (VL-linker-VH): B2 scFv (VL-linker-VH) with R183N, D185G, S186G, K187G, E188S, Q189T
notes: One of the seven improved scFvs (group m4); The full chain is assembled from ESBA521 with its VH CDR2 exchanged; also called scFv 33.11
B6: 4.12 (scFv)
scFv (VL-linker-VH): B2 scFv (VL-linker-VH) with R183N, D185R, S186G, K187Q, E188N, Q189E
notes: as for B1

Biological target: T1, human ALK epitope peptide (amino acids …)
Test: ELISA; the coated antigen is not named on the sheet or in the legend, taken as the ALK epitope peptide

**Q.** Does B1 bind?
**A.** Result: binds

**Q.** Does B2 bind?
**A.** Result: binds

**Q.** Does B3 bind?
**A.** Result: binds

**Q.** Does B4 bind?
**A.** Result: binds

**Q.** Does B5 bind?
**A.** Result: binds

**Q.** Does B6 bind?
**A.** Result: binds
